Here are results for 24 molecules from patent publication US20230265179A1 (TWIST BIOSCIENCE, published 2023).

One test concerns the target T1, CD40L (UniProt P29965 113-261, limits assumed).
T1 construct: SPR analyte
T1 sequence (looked up): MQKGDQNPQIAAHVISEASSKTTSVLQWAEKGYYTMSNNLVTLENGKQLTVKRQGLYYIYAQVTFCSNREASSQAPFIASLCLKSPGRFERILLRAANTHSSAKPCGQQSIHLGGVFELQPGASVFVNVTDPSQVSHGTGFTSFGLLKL
The test is described as follows: SPR (Carterra LSA), antibody amine-coupled, 1:1 model.

Test [1] deals with T2, CD40L over-expressed on Expi293 cells (UniProt P29965 1-261, limits assumed).
T2 construct: whole, on cells; also called cytokine over-expressing Expi293 cells
T2 sequence (looked up): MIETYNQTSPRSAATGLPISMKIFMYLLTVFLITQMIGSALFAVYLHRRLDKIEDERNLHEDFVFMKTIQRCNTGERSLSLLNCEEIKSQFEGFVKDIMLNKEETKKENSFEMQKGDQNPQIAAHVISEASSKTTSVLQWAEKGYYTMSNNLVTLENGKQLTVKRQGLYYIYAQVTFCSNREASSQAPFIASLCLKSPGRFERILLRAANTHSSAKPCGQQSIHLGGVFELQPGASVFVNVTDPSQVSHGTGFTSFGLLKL
As to the kind of experiment: flow cytometry, 100 nM antibody, CD40L-Expi293 vs parent Expi293 cells.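 Further: ratio is the mean fluorescence intensity on CD40L-overexpressing Expi293 cells divided by the mean fluorescence intensity on parental Expi293 cells.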 In general terms: A flow cytometer gives signals particle by particle.
Experimental: All incubations and washes were in buffer containing PBS+1% BSA. MFI Ratio is defined by the mean fluorescence intensity (MFI) of the cytokine over-expressing Expi293 cell over the Expi293 parent cell. […] EC50 was calculated in GraphPad Prism.

B1: CD40L-23 (VHH)
VHH: EVQLVESGGGLVQPGGSLRLSCAASGSIDRINAMGWFRQAPGKEREFVAVIYSSDGSTLYADSVKGRFTISADNSKNTAYLQMNSLKPEDTAVYYCAAEPYGSGSSLISEYDWGQGTLVTVSS
In the case of B1, in the test with CD40L, the affinity, expressed as Kd, was 3 nM; the off-rate (koff) (commonly the first-order rate constant of dissociation) amounted to 0.000555 s⁻¹; the kon – broadly, the second-order rate constant of association – worked out at 185000 M⁻¹ s⁻¹. In addition, the “100 nM FACS (MFI Ratio)” value in test [1] worked out at 44.4 ratio.

B2: CD40L-122 (VHH)
VHH: EVQLVESGGGLVQPGGSLRLSCAASGLLFSSYDMGWFRQAPGKEREFVAAISWSTGSGDDTYYADSVKGRFTISADNSKNTAYLQMNSLKPEDTAVYYCASDHYDTDTKSDVYNWGQGTLVTVSS
Turning to B2, the “100 nM FACS (MFI Ratio)” value in test [1] worked out at 14.2 ratio.

B3: CD40L-111 (VHH)
VHH: EVQLVESGGGLVQPGGSLRLSCAASGDTSEINDMGWFRQAPGKEREFVAAIYPSGRNAYYADSVKGRFTISADNSKNTAYLQMNSLKPEDTAVYYCAIPHGIAGRITWGQGTLVTVSS
For B3, the “100 nM FACS (MFI Ratio)” value in test [1] was 9.7 ratio.

B4: CD40L-2 (VHH)
VHH: EVQLVESGGGLVQPGGSLRLSCAASGGRTFSRYDMGWFRQAPGKEREFVAAISMSGDDAAYADSVKGRFTISADNSKNTAYLQMNSLKPEDTAVYYCASDHYDTDTKSDVYNWGQGTLVTVSS
Turning to B4, in the test with CD40L, the Kd (as a rule, the free concentration of one partner at which half of the binding sites on the other are occupied at equilibrium, for simple one-to-one binding) amounted to 3.18 nM; the koff was determined as 0.000725 s⁻¹; the kon is 228000 M⁻¹ s⁻¹. Besides, the “100 nM FACS (MFI Ratio)” value in test [1] worked out at 99.1 ratio.

B5: CD40L-53 (VHH)
VHH: EVQLVESGGGLVQPGGSLRLSCAASGGRTFSDYDMGWFRQAPGKEREFVAAIDASGGFTEYADSVKGRFTISADNSKNTAYLQMNSLKPEDTAVYYCASDHYDTDTKSDVYNWGQGTLVTVSS
As for B5, in the test with CD40L, the Kd was 0.0983 nM, the koff is 0.000167 s⁻¹ and the kon worked out at 1.7e+06 M⁻¹ s⁻¹. Moreover, in test [1], the “100 nM FACS (MFI Ratio)” value amounted to 104 ratio.

B6: CD40L-60 (VHH)
VHH: EVQLVESGGGLVQPGGSLRLSCAASGLNLSRLDMGWFRQAPGKEREFVAAVDNDDNTEYADSVKGRFTISADNSKNTAYLQMNSLKPEDTAVYYCASDHYDTDTKSDVYNWGQGTLVTVSS
In the case of B6, in the test with CD40L, the affinity, expressed as Kd, was 0.118 nM; the koff amounted to 0.000108 s⁻¹; the kon worked out at 915000 M⁻¹ s⁻¹. For the same molecule, the “100 nM FACS (MFI Ratio)” value in test [1] came out at 50.4 ratio.

B7: CD40L-45 (VHH)
VHH: EVQLVESGGGLVQPGGSLRLSCAASGLNLSRLDMGWFRQAPGKEREFVAASSWTGANTYYADSVKGRFTISADNSKNTAYLQMNSLKPEDTAVYYCASDHYDTDIKSDVYNWGQGTLVTVSS
In the test with CD40L, B7 had a Kd of 0.453 nM, a koff of 0.000106 s⁻¹ and a kon of 234000 M⁻¹ s⁻¹. For the same molecule, the “100 nM FACS (MFI Ratio)” value in test [1] worked out at 93.9 ratio.

B8: CD40L-4 (VHH)
VHH: EVQLVESGGGLVQPGGSLRLSCAASGFTLDYYAMGWFRQAPGKEREFVAYVFGGGEITDYADSVKGRFTISADNSKNTAYLQMNSLKPEDTAVYYCANGNGVAETWGQGTLVTVSS
Consider B8, for which, in the test with CD40L, the affinity, expressed as Kd, was 5.82 nM; the koff stood at 0.00147 s⁻¹; the kon is 252000 M⁻¹ s⁻¹. The “100 nM FACS (MFI Ratio)” value in test [1] turned out to be 11.8 ratio.

B9: CD40L-99 (VHH)
VHH: EVQLVESGGGLVQPGGSLRLSCAASGFTPDDYAMGWFRQAPGKEREFVADIMPYGSTEYADSVKGRFTISADNSKNTAYLQMNSLKPEDTAVYYCARRDAGIDFYYMDVWGQGTLVTVSS
For B9, the “100 nM FACS (MFI Ratio)” value in test [1] came to 3.1 ratio.

B10: CD40L-10 (VHH)
VHH: EVQLVESGGGLVQPGGSLRLSCAASGRIFSTYFMGWFRQAPGKEREFVAAIYWSNGKTQYADSVKGRFTISADNSKNTAYLQMNSLKPEDTAVYYCAAWLNGGNRWGQGTLVTVSS
With B10, in the test with CD40L, the equilibrium dissociation constant (Kd) was at most 0.326 nM, the off-rate (koff) was at most 1e-05 s⁻¹ and the kon came out at 30700 M⁻¹ s⁻¹. The “100 nM FACS (MFI Ratio)” value in test [1] came out at 93.6 ratio.

B11: CD40L-3 (VHH)
VHH: EVQLVESGGGLVQPGGSLRLSCAASGRIFSTYFMGWFRQAPGKEREWVSSIYSDGSTTDYADSVKGRFTISADNSKNTAYLQMNSLKPEDTAVYYCAAWLNGGNRWGQGTLVTVSS
Consider B11, for which, in the test with CD40L, the Kd was 2.91 nM, the koff was determined as 0.000159 s⁻¹ and the kon is 54700 M⁻¹ s⁻¹. The “100 nM FACS (MFI Ratio)” value in test [1] stood at 87.9 ratio.

B12: CD40L-49 (VHH)
VHH: EVQLVESGGGLVQPGGSLRLSCAASGRTFSRYYMGWFRQAPGKEREFVAAIYWSNGKTQYADSVKGRFTISADNSKNTAYLQMNSLKPEDTAVYYCAAWLNGGNRWGQGTLVTVSS
Consider B12, for which, in the test with CD40L, the Kd worked out at 47.9 nM, the koff came out at 0.00121 s⁻¹ and the association rate constant (kon) worked out at 25300 M⁻¹ s⁻¹. In test [1], the “100 nM FACS (MFI Ratio)” value worked out at 36.8 ratio.

B13: CD40L-7 (VHH)
VHH: EVQLVESGGGLVQPGGSLRLSCAASGHTFSSYYMGWFRQAPGKEREFVAAIYSGGITTHYADSVKGRFTISADNSKNTAYLQMNSLKPEDTAVYYCAAWLNGGNRWGQGTLVTVSS
B13: in the test with CD40L, the Kd worked out at 6.93 nM, the koff came out at 0.000121 s⁻¹ and the kon was 17400 M⁻¹ s⁻¹. Besides, in test [1], the “100 nM FACS (MFI Ratio)” value worked out at 95.4 ratio.

B14: CD40L-37 (VHH)
VHH: EVQLVESGGGLVQPGGSLRLSCAASGRTFSSYYMGWFRQAPGKEREEVATFYTGDGRTYYADSVKGRFTISADNSKNTAYLQMNSLKPEDTAVYYCAAWLNGGNRWGQGTLVTVSS
Take B14: in the test with CD40L, the Kd was determined as 2.39 nM, the koff came to 0.000199 s⁻¹ and the association rate constant (kon) amounted to 83300 M⁻¹ s⁻¹. Also, in test [1], the “100 nM FACS (MFI Ratio)” value was 97.7 ratio.

B15: CD40L-105 (VHH)
VHH: EVQLVESGGGLVQPGGSLRLSCAASGITFSSRTMGWFRQAPGKEREFVAAIRSSGGLFYADSVKGRFTISADNSKNTAYLQMNSLKPEDTAVYYCAAQDRRHGDYYTFDYHWGQGTLVTVSS
In the case of B15, the “100 nM FACS (MFI Ratio)” value in test [1] is 4.5 ratio.

B16: CD40L-91 (VHH)
VHH: EVQLVESGGGLVQPGGSLRLSCAASGGTFSSFPMGWFRQAPGKEREFVAAISWSEDNTYYADSVKGRFTISADNSKNTAYLQMNSLKPEDTAVYYCASRLAFCGRDCYLPTDWGQGTLVTVSS
Consider B16, for which, in test [1], the “100 nM FACS (MFI Ratio)” value was found to be 4.3 ratio.

B17: CD40L-96 (VHH)
VHH: EVQLVESGGGLVQPGGSLRLSCAASGGTFSAFPMGWFRQAPGKEREWVAAITSSGDSIYYADSVKGRFTISADNSKNTAYLQMNSLKPEDTAVYYCTSRLAFCGRDCYLPTTWGQGTLVTVSS
In the case of B17, in test [1], the “100 nM FACS (MFI Ratio)” value amounted to 3.7 ratio.

B18: CD40L-115 (VHH)
VHH: EVQLVESGGGLVQPGGSLRLSCAASGRTFSRYEMGWFRQAPGKEREFVAAVTEDGSTYYADSVKGRFTISADNSKNTAYLQMNSLKPEDTAVYYCAIAHGSSTYNWGQGTLVTVSS
As to B18, in test [1], the “100 nM FACS (MFI Ratio)” value came to 16.8 ratio.

B19: CD40L-125 (VHH)
VHH: EVQLVESGGGLVQPGGSLRLSCAASGFTFDYYTMGWFRQAPGKEREFVAVIYSSDGSTLYADSVKGRFTISADNSKNTAYLQMNSLKPEDTAVYYCAIDEGMDYDGNFYDWGQGTLVTVSS
As to B19, in test [1], the “100 nM FACS (MFI Ratio)” value was 6.6 ratio.

B20: CD40L-102 (VHH)
VHH: EVQLVESGGGLVQPGGSLRLSCAASGLTFSRYEMGWFRQAPGKEREFVAAVTEDGSIYADSVKGRFTISADNSKNTAYLQMNSLKPEDTAVYYCAAEIGYYSGGTYFSSEAWGQGTLVTVSS
As for B20, the “100 nM FACS (MFI Ratio)” value in test [1] was 1.8 ratio.

B21: CD40L-1 (VHH)
VHH: EVQLVESGGGLVQPGGSLRLSCAASGRTFSSIYAMGWFRQAPGKEREFIAVIYWRDGSTLYADSVKGRFTISADNSKNTAYLQMNSLKPEDTAVYYCAAEPYGSGSSLISEYDWGQGTLVTVSS
On to B21, for which, in the test with CD40L, binding was put at a Kd of 0.986 nM, the dissociation rate constant (koff) amounted to 9.43e-05 s⁻¹ and the kon stood at 95600 M⁻¹ s⁻¹. Further, the “100 nM FACS (MFI Ratio)” value in test [1] came to 119 ratio.

B22: CD40L-26 (VHH)
VHH: EVQLVESGGGLVQPGGSLRLSCAASGLTFSRYEMGWFRQAPGKEREFVAAVTEDGSINYADSVKGRFTISADNSKNTAYLQMNSLKPEDTAVYYCAAEIGYYSGGTYFSSEAWGQGTLVTVSS
In the test with CD40L, B22 registered a Kd of 0.491 nM, a koff of 0.000211 s⁻¹ and a kon of 429000 M⁻¹ s⁻¹. Also, in test [1], the “100 nM FACS (MFI Ratio)” value is 123 ratio.

B23: CD40L-114 (VHH)
VHH: EVQLVESGGGLVQPGGSLRLSCAASGRTFSPYIMGWFRQAPGKEREFVAEIGWRDTTLYADSVKGRFTISADNSKNTAYLQMNSLKPEDTAVYYCAARRGGDYLPTDWGQGTLVTVSS
For the molecule B23, in test [1], the “100 nM FACS (MFI Ratio)” value was found to be 7.3 ratio.

B24: CD40L-98 (VHH)
VHH: EVQLVESGGGLVQPGGSLRLSCAASGITFKRYDMGWFRQAPGKEREVVAVIYTSDGSTYYADSVKGRFTISADNSKNTAYLQMNSLKPEDTAVYYCAADRDRYRDGMGPMTTTDFRWGQGTLVTVSS
As for B24, in test [1], the “100 nM FACS (MFI Ratio)” value turned out to be 6.4 ratio.
